Reference: patent publication US20050026833A1, “PSP-94: use for treatment of hypercalcemia and bone metastasis” (priority 2001, published 2005)
Entries after “also recorded” stand apart in the source; their conditions may differ.

What was measured:
Mat Ly Lu-PTHrP tumors [1] = assay: TUNEL assay and Hoechst counterstaining of primary tumor sections; format: in vivo, male Copenhagen rats; details: vs vehicle; for TUNEL staining of tumor sections: fifteen days
Method: For TUNEL assay, tissue sections were, for example, dewaxed (e.g., in xylene), (may also be rehydrated by heating at 60° C. followed by washing in xylene) and (further) rehydrated through a graded alcohol series (100%-70%). Tissues were incubated with proteinase K for 30 min at 37° C. fixed, blocked and permeabilized. Apoptotic cells were detected by TUNEL assay in situ cell death detection kit (Roche Molecular Biochemicals, Laval, QC) according to the manufacturer's instruction. Positive TUNEL staining was visualised by fluorescence microscopy. In other experiments following TUNEL assay, tissue sections were counterstained with Hoechst 33258 (Sigma-Aldrich, Canada). Hoechst staining was added to tissues at a final concentration of 24 ug/ml in PBS and incubated for 15 minutes at room temperature. Tissue sections were washed and visualized by fluorescence microscopy using a blue screen (Rabbani, S. A., et al., Int. J.Cancer, 87:276-282, 2000). All results of immunohistochemistry and TUNEL assay were evaluated and interpreted by two independent examiners.
The degree of DNA fragmentation was also analyzed in vivo using TUNEL assay which can serve as a marker for apoptosis. […] All animals were sacrificed at the end of the study and their primary tumors removed, paraffin embedded, sectioned and processed by TUNEL assay (upper panel of FIG. 14B) as described herein. Following TUNEL assay, they were counterstained with Hoescht reagent (lower panel of FIG. 14B).
In order to investigate an underlying molecular mechanism of action of PCK3145 in reducing tumor growth, Mat Ly Lu-PTHrP tumors were analyzed using TUNEL assay which can serve as a marker for apoptosis. […] All animals were sacrificed at the end of the study and their primary tumors removed, paraffin embedded, sectioned and processed by TUNEL assay (upper panel) and counterstained with Hoescht reagent (lower panel). Five animals were present in each group and three sections were analyzed for each animal.

Mat Ly Lu-PTHrP cells [2] = assay: Cell morphology of treated Mat Ly Lu-PTHrP cells; format: cell-based, rat
Method: Cell morphology. Morphological analysis of control and experimental Mat Ly Lu-PTHrP cells treated with PSP-94 or PCK3145 was carried out by plating 5×10^4 cells/ well in 6-well plates (Falcon Plastics, Oxnard, Calif.) in the presence of 10% FBS.
(§1) Mat Ly Lu cells transfected with vector alone (CMV) or vector expressing PTHrP were seeded at a density of 5×10^3 cells/well in 6-well plates. Mat Ly Lu-PTHrP cells were treated with PSP-94 and were trypsinized and counted using a coulter counter as described herein. Change in cell number following treatment with 10.0 ug/ml of PSP-94 for 72 hrs is illustrated in FIG. 1.
(§2) Mat Ly Lu-PTHrP cells were seeded at a density of 5×10^3 cells/well in 6-well plates and treated with different doses (1.0-100.0 ug/ml) of PCK3145 for up to 5 days and were trypsinized and counted using a coulter counter as described herein.

Mat Ly Lu-PTHrP cells [3] = assay: Mat Ly Lu-PTHrP cell growth curve (Coulter counter); format: cell-based, rat
Method: Growth curve. For growth curves, Mat Ly Lu-PTHrP cells were plated in 6-well plates (Falcon Plastics, Oxnard, Calif.) at seeding densities of 5×10^3 cells/well. Mat Ly Lu-PTHrP cells were grown in the presence of 0.1, 1.0 & 10.0 ug/ml of PSP-94 or vehicle alone for up to 3 days and the ability of PSP-94 to alter cell doubling time was evaluated daily. Medium was changed every two days. The number of cells was counted in a model Z Coulter counter (Coulter Electronics, Beds, UK). Comparison was also made with doubling time of wild type untransfected Mat Ly Lu cells.
as §1, §2

[4] = Plasma calcium by atomic absorption spectrophotometry in tumor bearing animals; format: in vivo, male Copenhagen rats
Method: (§3) Control animals received PBS alone as vehicle control.
Other Analytical Methods. Plasma calcium levels were determined by atomic absorption spectrophotometry (model 703, Perkin-Elmer, Norwalk, Conn.). For plasma PTHrP, all samples were tested in two dilutions in PTHrP radio-immunoassay (R.I.A.) kit (Nichols Institute Diagnostics, San Juan Capistrano, Calif.) according to manufacturer's instructions.
Comparison was made between plasma collected from normal, non-tumor bearing animals (N), control tumor bearing animals receiving vehicle alone (CTL) and plasma collected from experimental animals receiving different doses of PSP-94 (0.1-10.0 ug/kg/day). Plasma calcium levels were determined by atomic absorption spectrophotometry (model 703, Perkin-Elmer, Norwalk, Conn.). For plasma PTHrP, all samples were tested in two dilutions in PTHrP R.I.A. kit (Nichols Institute Diagnostics, San Juan Capistrano, Calif.) according to manufacturers instructions.
FIGS. 10A and 10B show male Copenhagen rats inoculated s.c. with 10^6 Mat Ly Lu-PTHrP cells. Following 3 days of tumor cell inoculation, animals were treated with vehicle alone (Ctl) or different doses (1.0, or 10.0 ug/kg/day) of PSP-94 for 18 days. Animals were sacrificed on day 21 and plasma PTHrP (FIG. 10A; expressed in picomole equivalents/liter) or plasma calcium (FIG. 10B; expressed in millimolar (mM)) levels were determined. Results for non-tumor bearing animals are also shown (N).
Plasma calcium levels from non-tumor bearing animals are also shown (N).

Mat Ly Lu-PTHrP tumors [5] = assay: S.C. Mat Ly Lu-PTHrP tumor growth (volume, weight) in Copenhagen rats; format: in vivo, male Copenhagen rats
Method: as §3
Starting from the day of tumor cell inoculation animals were infused S.C., below the tumor cell inoculation site, with different doses of PSP-94 (0.1-10.0 ug/kg/day) for up to 15 days.
In FIG. 2B male Copenhagen rats were inoculated s.c with 10^6 Mat Ly Lu-PTHrP cells. After 3 days of tumor cell inoculation, animals were injected with vehicle alone (Ctl) or different doses (0.1, 1, 10 ug/kg) of PSP-94 (nPSP) at the site of tumor cell injection. Tumor volume (expressed in cubic centimeter (cm^3)) was determined at timed intervals.
At the end of the study tumors from control (CTL), vehicle treated animals and PSP-94 treated animals were excised and weighed.

[6] = Animal weight and side-effect monitoring in tumor-bearing rats; details: for cytotoxic effects: overall conclusion of the study
Method: Also, alternatively, cell pellets (5×10^5 cells) were resuspended in 100 ul saline and injected using 1 ml syringes into the right flank of rats as described herein. From the time of tumor cell inoculation, experimental animals were treated with different doses (0.1, 1.0, 10.0, or 100.0 ug/kg/day) of PSP-94 or PCK3145 (SEQ ID NO.:5) via S.C. injections for 15 consecutive days. Control animals received PBS alone as vehicle control. All animals were numbered, kept separately and monitored daily for the development of tumors. […] All control and experimental animals were weighed every alternate day to determine any adverse effect of PSP-94 or PCK3145. Both control and experimental animals were sacrificed at day 16 post tumor cell inoculation and their tumors were removed and weighed.
During the study, both control and experimental animals were monitored for any noticeable side effects and cachexia resulting in weight loss. […] Starting on the time of tumor cell inoculation animals were infused with different doses of PSP-94 for fifteen consecutive days as described herein. All animals were weighed at timed intervals and comparison was made with that of tumor bearing animals receiving vehicle alone as control (CTL).
Male Copenhagen rats were inoculated with 1×10^6 Mat Ly Lu-PTHrP cells via S.C. route of injection into the right flank. Animals were infused daily via S.C. route, below the site of tumor cell inoculation, with different doses (1.0-100.0 ug/kg/day) of PCK3145 starting from the day of tumor cell inoculation and lasting for 15 days. […] Animals were also weighed to determine any side effects of administering PCK3145. […] In order to determine the effect of PCK3145 on tumor weight, control animals and experimental animals receiving PCK3145 were sacrificed at the end of the study (day 16) and their tumors excised and weighed.

For “E W Q T D N C E T C T C Y E T (EWQTDNCETCTCYET; PCK3145 (polypeptide 31-45))”, the “Hoechst counterstaining of tumor sections” value (shortened to “Hoechst counterstaining”) (Mat Ly Lu-PTHrP tumors [1]; Example 9, PCK3145 study) was “presence of apoptotic bodies”, the “TUNEL staining of tumor sections” value (Mat Ly Lu-PTHrP tumors [1]; PCK3145 100.0 ug/kg/day) was “significantly more TUNEL positive” and the cell morphology (Mat Ly Lu-PTHrP cells [2]; 100.0 ug/ml PCK3145 (data not shown)) was “changed their morphology from a more spindle-like appearance to a more circular and condensed shape”. For the same molecule, the cell growth (Mat Ly Lu-PTHrP cells [3]; PCK3145 1.0-100.0 ug/ml up to 5 days, vs vehicle) was “dose dependent decrease”, the cell number (Mat Ly Lu-PTHrP cells [3]; PCK3145 highest dose 100.0 ug/ml, vs vehicle) was “significant reduction” and the plasma calcium levels ([4]; 100.0 ug/kg PCK3145, relative to lower doses) was “more pronounced”. For the same molecule, the plasma calcium levels ([4]; different doses of PCK3145, day 16, vs vehicle) was “significant reduction”, the tumor volume (Mat Ly Lu-PTHrP tumors [5]; PCK3145 1.0-100.0 ug/kg/day S.C. for 15 days, vs vehicle) was “significant dose-dependent reduction” and the tumor weight (Mat Ly Lu-PTHrP tumors [5]; different doses of PCK3145, day 16 (data not shown), vs vehicle) was “dose-dependent decrease”. For the same molecule, the animal weight ([6]; PCK3145 1.0-100.0 ug/kg/day S.C. for 15 days) was “No significant difference” and the cytotoxic effects [6] was “without manifesting any noticeable cytotoxic effects”.

B1: PSP-94: prostate secretory protein of 94 amino acids; native human seminal plasma PSP-94 (protein)
chain: SCYFIPNEGVPGDSTRKCMDLKGNKHPINSEWQTDNCETCTCYETEISCCTLVSTPVGYDKDNCQRIFKKEDCKYIVVEKKDPKKTCSVSEWII
With B1 the “Hoechst counterstaining” value (Mat Ly Lu-PTHrP tumors [1]; Example 9, PCK3145 study) was “condensed chromatin”, the “TUNEL staining of tumor sections” value (Mat Ly Lu-PTHrP tumors [1]; PSP-94 10.0 ug/kg/day) was “significantly more TUNEL positive” and the “Hoechst counterstaining” value (Mat Ly Lu-PTHrP tumors [1]; PSP-94 treated animals) was “presence of apoptotic bodies; also recorded: condensed chromatin”. For the same molecule, the tumor cell morphology (Mat Ly Lu-PTHrP cells [2]; 10.0 ug/ml PSP-94 for 3 days (data not shown)) was “noticeable change in tumor cell morphology”, the MatLyLu-PTHrP cell growth (Mat Ly Lu-PTHrP cells [3]; 10.0 ug/ml PSP-94 for 72 hrs, vs cells without PSP-94) was “significant decrease” and the plasma calcium levels ([4]; different doses of PSP-94, day 16, vs vehicle) was “significant reduction; also recorded: dose-dependent decrease”. For the same molecule, the plasma calcium levels ([4]; highest dose of PSP-94, 10.0 ug/kg/day) was “near normalization”, the tumor volume (Mat Ly Lu-PTHrP tumors [5]; 10.0 ug/kg/day PSP-94 as compared to 1.0 ug/kg/day PSP-94) was “did not show a marked decrease” and the tumor volume (Mat Ly Lu-PTHrP tumors [5]; PSP-94 0.1-10.0 ug/kg/day S.C. up to 15 days, vs vehicle) was “marked dose-dependent reduction”. The tumor weight (Mat Ly Lu-PTHrP tumors [5]; PSP-94 0.1-10.0 ug/kg/day, tumors excised day 16, vs vehicle) was “significant dose-dependent decrease”, the “side effects or weight loss of experimental animals” value ([6]; different doses of PSP-94, S.C. tumor model) was “not associated with any noticeable side effects or weight loss” and the animal weight ([6]; different doses of PSP-94 for fifteen consecutive days, vs vehicle) was “No significant change”. For the same molecule, the cytotoxic effects [6] was “without manifesting any noticeable cytotoxic effects”.
